The results in this text go back to patent publication US20220372490A1.

For orientation: Kd means the concentration at which binding is half-saturated.

Assay [1] concerns the target p53^WT, p53^R175H, p53^R248Q, p53^R273H and p53^R280K (His-tagged recombinant proteins, as a group). The assay is described as follows: ELISA, His-tagged recombinant proteins.
Assay [2] has as its target the mutants (p53 mutants in whole cell lysates of SKBR3, MDA-MB-231, MDA-MB-468 and HCC70, as a group). The assay is described as follows: cell-based or functional assay.
Assay [3] concerns the target p53WT and the mutants (p53 in whole cell lysates of CAL-51, SKBR3, MDA-MB-231, MDA-MB-468 and HCC70, as a group). The assay is described as follows: IP of all p53 with excess antibody, WB of PEPD in the precipitate against input.

B1: His-tagged recombinant human PEPD (prolidase, peptidase D) (enzyme, UniProt P12955 1-493, looked up)
chain: MAAATGPSFWLGNETLKVPLALFALNRQRLCERLRKNPAVQAGSIVVLQGGEETQRYCTDTGVLFRQESFFHWAFGVTEPGCYGVIDVDTGKSTLFVPRLPASHATWMGKIHSKEHFKEKYAVDDVQYVDEIASVLTSQKPSVLLTLRGVNTDSGSVCREASFDGISKFEVNNTILHPEIVECRVFKTDMELEVLRYTNKISSEAHREVMKAVKVGMKEYELESLFEHYCYSRGGMRHSSYTCICGSGENSAVLHYGHAGAPNDRTIQNGDMCLFDMGGEYYCFASDITCSFPANGKFTADQKAVYEAVLRSSRAVMGAMKPGVWWPDMHRLADRIHLEELAHMGILSGSVDAMVQAHLGAVFMPHGLGHFLGIDVHDVGGYPEGVERIDEPGLRSLRTARHLQPGMVLTVEPGIYFIDHLLDEALADPARASFLNREVLQRFRGFGGVRIEEDVVVTDSGIELLTCVPRTVEEIEACMAGCDKAFTPFSGPK
As for B1, in assay [1], the Kd was in the range of 145 to 185 nM.

B2: PEPD in human breast cancer cells (endogenous, in cell lysates, cytosol or nuclear extracts), P12955 2-493 (enzyme, UniProt P12955 2-493, looked up)
chain: AAATGPSFWLGNETLKVPLALFALNRQRLCERLRKNPAVQAGSIVVLQGGEETQRYCTDTGVLFRQESFFHWAFGVTEPGCYGVIDVDTGKSTLFVPRLPASHATWMGKIHSKEHFKEKYAVDDVQYVDEIASVLTSQKPSVLLTLRGVNTDSGSVCREASFDGISKFEVNNTILHPEIVECRVFKTDMELEVLRYTNKISSEAHREVMKAVKVGMKEYELESLFEHYCYSRGGMRHSSYTCICGSGENSAVLHYGHAGAPNDRTIQNGDMCLFDMGGEYYCFASDITCSFPANGKFTADQKAVYEAVLRSSRAVMGAMKPGVWWPDMHRLADRIHLEELAHMGILSGSVDAMVQAHLGAVFMPHGLGHFLGIDVHDVGGYPEGVERIDEPGLRSLRTARHLQPGMVLTVEPGIYFIDHLLDEALADPARASFLNREVLQRFRGFGGVRIEEDVVVTDSGIELLTCVPRTVEEIEACMAGCDKAFTPFSGPK
Molecule B2 returned a cells killed by PEPD siRNA after 72 h (trypan blue assay), cells without PEPD^G278D in assay [2] of 65 to 79%.

B3: PEPD in human breast cancer cells (endogenous, in cell lysates, cytosol or nuclear extracts) (enzyme, UniProt P12955 2-493, looked up)
chain: B2 chain
Regarding B3, the percent of PEPD that binds to p53 in assay [3] lay within 6 to 9%.
